For one data set, the target named is T1, CpsUbiX (Colwellia psychrerythraea, UniProt Q489U8).
T1 construct: gene ubiX; full length, residues 1-206, pET-28a(+) NdeI/XhoI, E. coli BL21(DE3), His-tag cleaved with thrombin, dodecamer; FMN site formed by three neighbouring subunits
In words: X-ray crystal structure, […] Å. Conditions: co-purified from E. coli; crystals at pH 5.8; site at the interface of three subunits. It counts as binding.

Data set [1] concerns the molecule itself. Kind of data set: crystal structure; wild type CpsUbiX with bound FMN; space group C222(1), 6 monomers in the asymmetric unit, dodecamer generated by crystallographic symmetry; 200 mM NaCl, 100 mM potassium/sodium phosphate pH 5.8, 11% PEG-8000; 1.9 Å.
Data set [2] deals with the molecule itself. Kind of data set: crystal structure; V47S mutant CpsUbiX without FMN; space group P23, one molecule in the asymmetric unit, dodecamer generated by crystallographic symmetry; 0.1 M tri-sodium citrate pH 5.4, 0.5 M ammonium sulfate, 1.2 M lithium sulfate, 293 K; 1.76 Å.

Changes are numbered by the printed parent chain. Numbers in names are those of the source.

Take `Cc1cc2nc3c(=O)[nH]c(=O)nc-3n(C[C@H](O)[C@H](O)[C@H](O)COP(=O)(O)O)c2cc1C` [FMN]: the “X-ray crystal structure, 1.9 Å” value at CpsUbiX was “FMN-bound (wild type) and FMN-free (V47S mutant) CpsUbiXs were deposited in the Protein Data Bank”.

B1: Colwellia psychrerythraea 34H UbiX protein (CpsUbiX), wild type, FMN-bound form (enzyme, UniProt Q489U8 1-206, looked up)
chain: MNNDFNGKITLAITGASGASYAMRLIECLIAANYQLYILCSSAGRIVLDTEVGVKIPSSPDAASKFLTEKYQAKDQQITVFGKEQWFSPVASGSSAPKQMVVCPCSTGTMAAICHGMSDNLIERAADVVIKERGQLILMVRETPFSTLHLQNMLSLSQQGVTIMPASPGFYHKVETIEDLIDFMVGRVLDHLGIEQDIMPRWGYNI
notes: UbiX (3-octaprenyl-4-hydroxybenzoate carboxylase) of Colwellia psychrerythraea strain 34H (ATCC BAA-681), UniProt Q489U8, full-length gene, residues 1-206; Cloned between the NdeI and XhoI sites of pET-28a(+); the His-tag was cleaved with thrombin, so a few vector residues probably remain at the N-terminus (surmised); also called 3-octaprenyl-4-hydroxybenzoate carboxylase; wild type CpsUbiX; …
Usually stoichiometry N stands for the number of molecules, sites or subunits per partner or assembly. Turning to B1, the “stoichiometry N” value in data set [1] was determined as 12.

B2: V47S mutant CpsUbiX (FMN-free form) (enzyme, Colwellia psychrerythraea 34H, UniProt Q489U8 1-206, looked up)
chain: B1 chain with V47S
notes: UbiX (3-octaprenyl-4-hydroxybenzoate carboxylase) of Colwellia psychrerythraea strain 34H, UniProt Q489U8, residues 1-206, with V47S; it was expressed and purified as the wild type; also called V47S CpsUbiX; FMN-free CpsUbiX; source: E. coli BL21 (DE3), purified by methods similar to the wild type (Ni-NTA, thrombin cleavage, Superdex-200 SEC); copies: 12
As for B2, the “stoichiometry N” value in data set [2] is 12.

The values are drawn from publication PMC4316190, “Crystal structure of UbiX, an aromatic acid decarboxylase from the psychrophilic bacterium Colwellia psychrerythraea that undergoes FMN-induced conformational changes” (Scientific Reports, 2015).
